US20150299255A1

Target: lectin SNA1 from Sambucus nigra (Sambucus nigra), Q41358
Experiment: solid-phase assay, peptide titrated into wells containing bound lectin (FIG. 7)

Sequence of lectin SNA1 from Sambucus nigra (Sambucus nigra), Q41358 (Q41358 29-289 limits assumed, chain 1 of 2): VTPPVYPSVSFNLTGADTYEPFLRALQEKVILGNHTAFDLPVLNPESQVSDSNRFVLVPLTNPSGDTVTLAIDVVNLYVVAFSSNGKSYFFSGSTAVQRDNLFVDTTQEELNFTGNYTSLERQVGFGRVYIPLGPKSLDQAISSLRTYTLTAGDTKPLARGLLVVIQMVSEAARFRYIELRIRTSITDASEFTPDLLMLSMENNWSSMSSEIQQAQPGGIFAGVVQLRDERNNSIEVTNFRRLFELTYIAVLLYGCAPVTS
Sequence of lectin SNA1 from Sambucus nigra (Sambucus nigra), Q41358 (Q41358 309-570 limits assumed, chain 2 of 2): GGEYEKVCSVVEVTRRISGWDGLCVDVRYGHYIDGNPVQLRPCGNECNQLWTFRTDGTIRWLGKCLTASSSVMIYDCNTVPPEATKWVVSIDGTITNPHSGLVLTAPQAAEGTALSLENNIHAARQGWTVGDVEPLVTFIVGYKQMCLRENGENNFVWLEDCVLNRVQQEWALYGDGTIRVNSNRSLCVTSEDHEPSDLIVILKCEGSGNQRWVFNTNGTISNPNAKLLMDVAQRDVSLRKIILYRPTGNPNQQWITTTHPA

B1: biotinylated quadravalent SVH1C (peptide)
peptide: NPSHPLSGGGGS
chain: KKKK
modifications: not checked
  amount of peptide at half-maximal binding (pmoles peptide per well): 25
